For assay [1], the target named is T1, Halo-tagged iASPP CTD (625–828) (UniProt Q8WUF5 625-828).
T1 construct: iASPP C-terminal domain (CTD) with the SH3 domain, residues 625-828; also called iASPP CTD fused to Halo-Tag; not shown: HaloTag, N-terminal, kept
T1 sequence (looked up): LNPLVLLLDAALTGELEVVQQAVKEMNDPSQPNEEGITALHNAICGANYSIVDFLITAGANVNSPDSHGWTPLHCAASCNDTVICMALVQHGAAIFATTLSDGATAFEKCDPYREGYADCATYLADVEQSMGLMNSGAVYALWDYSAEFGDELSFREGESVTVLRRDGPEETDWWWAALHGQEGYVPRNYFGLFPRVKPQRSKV
In words: pull-down; displacement pull-down: 25 μM JunD or PP1 peptide added to Halo-iASPP CTD on magnetic Halo beads, read by loss of in vitro translated Myc-tagged protein. The following applies: both partners purified.

The target of assay [2] is T2, ASPP1 CTD (887–1090) (Homo sapiens (Human), UniProt Q96KQ4).
T2 chain: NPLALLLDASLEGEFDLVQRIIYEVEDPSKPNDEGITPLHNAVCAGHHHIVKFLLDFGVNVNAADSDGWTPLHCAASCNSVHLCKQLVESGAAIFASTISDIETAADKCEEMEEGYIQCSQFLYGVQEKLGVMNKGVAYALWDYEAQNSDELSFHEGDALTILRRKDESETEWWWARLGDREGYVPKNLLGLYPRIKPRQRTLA
In words: ITC. Background: In ITC the heat of successive injections is recorded.

Assay [3] deals with T3, ASPP1 CTD (887–1090) (Homo sapiens (Human), UniProt Q96KQ4).
T3 chain: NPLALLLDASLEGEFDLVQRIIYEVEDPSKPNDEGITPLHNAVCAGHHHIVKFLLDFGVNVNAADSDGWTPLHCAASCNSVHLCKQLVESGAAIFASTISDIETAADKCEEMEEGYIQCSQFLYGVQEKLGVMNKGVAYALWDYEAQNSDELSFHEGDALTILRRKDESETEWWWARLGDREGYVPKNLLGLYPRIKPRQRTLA
The assay is described as follows: ITC.

In assay [4] the target is T4, iASPP CTD (625–828) (UniProt Q8WUF5 625-828).
T4 chain: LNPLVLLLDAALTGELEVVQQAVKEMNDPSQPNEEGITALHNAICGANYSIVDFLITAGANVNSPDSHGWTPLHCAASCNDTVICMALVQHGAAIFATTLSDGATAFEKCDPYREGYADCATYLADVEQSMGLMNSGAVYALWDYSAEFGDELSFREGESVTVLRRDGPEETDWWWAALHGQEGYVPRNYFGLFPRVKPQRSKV
In words: ITC.

Consider 2 molecules from paper PMC9597577, “Mutant Ras and inflammation-driven skin tumorigenesis is suppressed via a JNK-iASPP-AP1 axis” (Cell Reports, 2022).

Broadly, the Kd is the concentration at which binding is half-saturated. Read a low Kd as tighter binding.

B1: PP1alpha peptide (WNPGGRPITPPRNSA) (peptide)
peptide: WNPGGRPITPPRNSA
notes: leading tryptophan; PxxP-containing peptide derived from the phosphatase PP1 (PP1alpha), C-terminal tail; also called PP1 peptide; source: synthetic peptide (TUCF, custom made)
Regarding B1, the binding result in assay [1] was “binds”.

B2: JunD peptide (WLKPAAAPPPTPLRADGAPSA) (peptide)
peptide: WLKPAAAPPPTPLRADGAPSA
For the molecule B2, the binding result in assay [2] and in assay [3] was “no binding” throughout. Further, the Kd in assay [4] turned out to be 4.58 µM.
